US20120021988A1, “METHODS FOR TREATING IMMUNE THROMBOCYTOPENIA” (priority 2007, published 2012)

How the values were obtained:
[1] = target: human C1q (Quidel Corp.) (human) (UniProt P02745); experiment: reverse ELISA, PAP on C1q-coated plate without competitor
FcγI = FcγI (UniProt P12314); experiment: reverse ELISA (repeat), PAP on Fcγ1-coated plate without competitor
FCγIIIb (NA2) = FCγIIIb (NA2) (UniProt O75015); experiment: reverse ELISA (repeat), PAP on FcγIIIb (NA2)-coated plate without competitor
UniProt O75015, sequence (O75015 17-200 N65S limits assumed): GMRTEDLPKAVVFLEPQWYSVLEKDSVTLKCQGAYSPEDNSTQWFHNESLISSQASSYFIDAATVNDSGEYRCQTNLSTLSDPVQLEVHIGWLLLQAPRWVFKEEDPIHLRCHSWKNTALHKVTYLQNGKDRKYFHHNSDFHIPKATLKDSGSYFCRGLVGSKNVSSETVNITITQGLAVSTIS

FcγIIIa = FcγIIIa (UniProt P08637); experiment: reverse ELISA, PAP on FcγIIIa-coated plate without competitor
UniProt P08637, sequence (P08637 17-208 limits assumed): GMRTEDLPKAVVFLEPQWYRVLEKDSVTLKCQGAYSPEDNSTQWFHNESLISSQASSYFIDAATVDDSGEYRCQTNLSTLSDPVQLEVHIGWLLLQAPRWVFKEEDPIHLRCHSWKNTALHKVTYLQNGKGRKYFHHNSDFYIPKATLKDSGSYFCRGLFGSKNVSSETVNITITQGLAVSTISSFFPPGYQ

[2] = target: FcγIIa (His 131 allele aka H161) (UniProt P12318); experiment: reverse ELISA (repeat), PAP on FcγIIa (H131 allele)-coated plate without competitor
FcγIIb [3] = target: FcγIIb (UniProt P31994); experiment: reverse ELISA (repeat), PAP on FcγIIb/c-coated plate without competitor
UniProt P31994, sequence (P31994 46-217 limits assumed): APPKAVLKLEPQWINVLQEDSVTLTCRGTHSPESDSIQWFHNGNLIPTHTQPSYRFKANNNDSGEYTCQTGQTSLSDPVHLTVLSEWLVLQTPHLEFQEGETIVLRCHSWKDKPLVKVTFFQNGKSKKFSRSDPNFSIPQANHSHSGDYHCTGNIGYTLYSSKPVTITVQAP

FcγIIb [4] = target: FcγIIb (UniProt P31994); experiment: reverse ELISA, PAP on FcγIIb-coated plate without competitor
FcγIIa (R131 allele) = FcγIIa (R131 allele) (UniProt P12318); experiment: reverse ELISA, PAP on FcγIIa (R131 allele)-coated plate without competitor
[5] = target: PAP complex: preformed immune complex of peroxidase and rabbit anti-peroxidase IgG (horseradish) (UniProt P00433); experiment: reverse ELISA competition: PAP pre-incubated with peptide, then on plate coated with FcγIIIa; signal is PAP left bound to the receptor
[6] = target: PAP complex: preformed immune complex of peroxidase and rabbit anti-peroxidase IgG (horseradish) (UniProt P00433); experiment: reverse ELISA competition (repeat): inhibition by the peptide of PAP binding to immobilised FcγIIIb (NA2)
[7] = target: PAP complex: preformed immune complex of peroxidase and rabbit anti-peroxidase IgG (horseradish) (UniProt P00433); experiment: reverse ELISA competition (repeat): inhibition by the peptide of PAP binding to immobilised Fcγ1
[8] = target: PAP complex: preformed immune complex of peroxidase and rabbit anti-peroxidase IgG (horseradish) (UniProt P00433); experiment: reverse ELISA competition (repeat): inhibition by the peptide of PAP binding to immobilised FcγIIb/c
[9] = target: PAP complex: preformed immune complex of peroxidase and rabbit anti-peroxidase IgG (horseradish) (UniProt P00433); experiment: reverse ELISA competition (repeat): PAP pre-incubated with peptide, then on plate coated with FcγIIIb (NA2); signal is PAP left bound to the receptor
[10] = target: PAP complex: preformed immune complex of peroxidase and rabbit anti-peroxidase IgG (horseradish) (UniProt P00433); experiment: reverse ELISA competition (repeat): PAP pre-incubated with peptide, then on plate coated with FcγIIa (H131 allele); signal is PAP left bound to the receptor
[11] = target: PAP complex: preformed immune complex of peroxidase and rabbit anti-peroxidase IgG (horseradish) (UniProt P00433); experiment: reverse ELISA competition: PAP pre-incubated with peptide, then on C1q-coated plate; signal is PAP left bound to immobilised human C1q (lower = more inhibition)
[12] = target: PAP complex: preformed immune complex of peroxidase and rabbit anti-peroxidase IgG (horseradish) (UniProt P00433); experiment: reverse ELISA competition: PAP pre-incubated with peptide, then on plate coated with FcγIIb; signal is PAP left bound to the receptor
[13] = target: PAP complex: preformed immune complex of peroxidase and rabbit anti-peroxidase IgG (horseradish) (UniProt P00433); experiment: reverse ELISA competition (repeat): inhibition by the peptide of PAP binding to immobilised FcγIIa (H131 allele)
[14] = target: PAP complex: preformed immune complex of peroxidase and rabbit anti-peroxidase IgG (horseradish) (UniProt P00433); experiment: reverse ELISA competition: PAP pre-incubated with peptide, then on plate coated with FcγIIa (R131 allele); signal is PAP left bound to the receptor
[15] = target: PAP complex: preformed immune complex of peroxidase and rabbit anti-peroxidase IgG (horseradish) (UniProt P00433); experiment: reverse ELISA competition (repeat): PAP pre-incubated with peptide, then on plate coated with Fcγ1; signal is PAP left bound to the receptor
[16] = target: PAP complex: preformed immune complex of peroxidase and rabbit anti-peroxidase IgG (horseradish) (UniProt P00433); experiment: reverse ELISA competition (repeat): PAP pre-incubated with peptide, then on plate coated with FcγIIb/c; signal is PAP left bound to the receptor

UniProt P12314, sequence (P12314 16-288 limits assumed): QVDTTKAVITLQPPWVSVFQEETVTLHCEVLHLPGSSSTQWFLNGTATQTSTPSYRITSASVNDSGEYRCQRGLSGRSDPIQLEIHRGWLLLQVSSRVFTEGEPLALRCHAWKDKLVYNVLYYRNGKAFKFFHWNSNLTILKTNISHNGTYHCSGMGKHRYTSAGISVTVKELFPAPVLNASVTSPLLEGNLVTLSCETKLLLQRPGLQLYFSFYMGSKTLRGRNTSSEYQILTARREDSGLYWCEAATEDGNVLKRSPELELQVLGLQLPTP
UniProt P02745, sequence (P02745 23-245 limits assumed, chain 1 of 3): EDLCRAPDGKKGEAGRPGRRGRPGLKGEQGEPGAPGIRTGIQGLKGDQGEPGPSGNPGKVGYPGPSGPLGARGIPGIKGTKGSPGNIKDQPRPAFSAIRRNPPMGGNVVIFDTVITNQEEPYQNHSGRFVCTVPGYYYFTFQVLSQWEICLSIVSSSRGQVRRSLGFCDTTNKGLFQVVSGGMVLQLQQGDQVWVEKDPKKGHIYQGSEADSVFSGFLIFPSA
UniProt P02745, sequence (P02746 28-253 limits assumed, chain 2 of 3, further chain): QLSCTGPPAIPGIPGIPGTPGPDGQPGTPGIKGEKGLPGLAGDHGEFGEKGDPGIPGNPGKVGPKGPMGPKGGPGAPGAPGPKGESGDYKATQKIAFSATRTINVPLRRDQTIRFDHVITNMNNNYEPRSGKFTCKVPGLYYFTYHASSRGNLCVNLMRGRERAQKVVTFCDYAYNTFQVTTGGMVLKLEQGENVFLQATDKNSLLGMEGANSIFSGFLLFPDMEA
UniProt P02745, sequence (P02747 29-245 limits assumed, chain 3 of 3, further chain): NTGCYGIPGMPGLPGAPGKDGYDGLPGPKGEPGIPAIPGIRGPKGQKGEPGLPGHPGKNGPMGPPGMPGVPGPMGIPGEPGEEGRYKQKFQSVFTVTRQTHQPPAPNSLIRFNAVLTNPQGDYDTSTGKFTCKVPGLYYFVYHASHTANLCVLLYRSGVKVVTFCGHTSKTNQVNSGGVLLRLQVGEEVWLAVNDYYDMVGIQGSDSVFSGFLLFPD

OD 405 nm [1] | OD 405 nm (FcγI) | OD 405 nm (FCγIIIb (NA2)) | OD405 (FcγIIIa) | OD 405 nm [2] | OD 405 nm (FcγIIb [3]) | OD405 (FcγIIb [4]) | OD405 (FcγIIa (R131 allele)) | OD405 [5] | % inhibition of IC binding [6] | % inhibition of IC binding [7] | % inhibition of IC binding [8] | OD 405 nm [9] | OD 405 nm [10] | OD 405 nm [11] | OD405 [12] | % inhibition of IC binding [13] | OD405 [14] | OD 405 nm [15] | OD 405 nm [16] | Molecule
2.35 OD 405 nm | 2.33 OD 405 nm | 3.06 OD 405 nm | 1.59 OD405 | 3.51 OD 405 nm | 2.22 OD 405 nm | 1.39 OD405 | 1.6 OD405 |  |  |  |  |  |  |  |  |  |  |  |  | PAP complex: preformed immune complex of peroxidase and rabbit anti-peroxidase IgG (from UniProt P00433 31-338)
 |  |  |  |  |  |  |  | 0.67 OD405 | 91% | 89% | 88% | 0.266 OD 405 nm | 0.209 OD 405 nm | 0.389 OD 405 nm | 0.496 OD405 | 94% | 0.509 OD405 | 0.264 OD 405 nm | 0.266 OD 405 nm | APPDCAWHLGELVWCT [Peptide … (SEQ ID NO:20)]
